This is an account of results in patent publication US20210403527A1 (Regeneron, published 2021).

Test in all cases: cell-based or functional assay
Assay [1] concerns the target HLA-A2/NY-ESO-1 (157-165) complex on cells (human).
Assay [2] has the same target. This is another data set of the same source.
Assay [3] addresses single chain HLA-A2 presenting an NY-ESO-1 (157-165) peptide, overexpressed on IM9 cells.

Where a chain is given by its changes, count along the chain named.

B1: TCR063 (TCR, V domains shown)
V domain 1: QKEVEQNSGPLSVPEGAIASLNCTYSDRGSQSFFWYRQYSGKSPELIMSIYSNGDKEDGRFTAQLNKASQYVSLLIRDSQPSDSATYLCAVNILASGGSYIPTFGRGTSLIVHP
V domain 2: ETGVTQTPRHLVMGMTNKKSLKCEQHLGHNAMYWYKQSAKKPLELMFVYNFKEQTENNSVPSRFSPECPNSSHLFLHLHTLQPEDSALYLCASSHGTGYNYGYTFGSGTRLTVV
Turning to B1, the “Signal to Noise (S/N) ratio (RLU to peptide pulsed APCs divided by RLU to non-pulsed APCs), AP-1 luciferase reporter T cells” value in assay [1] worked out at 11.2 ratio.

B2: TCR188 (TCR, V domains shown)
V domain 1: DAKTTQPNSMESNEEEPVHLPCNHSTISGTDYIHWYRQLPSQGPEYVIHGLTSNVNNRMASLAIAEDRKSSTLILHRATLRDAAVYYCILNTGTASKLTFGTGTRLQVTL
V domain 2: GAVVSQHPSWVICKSGTSVKIECRSLDFQATTMFWYRQFPKQSLMLMATSNEGSKATYEQGVEKDKFLINHASLTLSTLTVTSAHPEDSSFYICSAKEGTEAFFGQGTRLTVV
As to B2, in assay [1], the “Signal to Noise (S/N) ratio (RLU to peptide pulsed APCs divided by RLU to non-pulsed APCs), AP-1 luciferase reporter T cells” value is 5.1 ratio.

B3: composite TCR 001 (human variable domains, mouse constant domains) (TCR, V domains shown)
V domain 1: DAKTTQPNSMESNEEEPVHLPCNHSTISGTDYIHWYRQLPSQGPEYVIHGLTSNVNNRMASLAIAEDRKSSTLILHRATLRDAAVYYCILRPDSWGKFQFGAGTQVVVTP
V domain 2: NAGVTQTPKFRILKIGQSMTLQCAQDMNHNYMYWYRQDPGMGLKLIYYSVGAGITDKGEVPNGYNVSRSTTEYFPLRLELAAPSQTSVYFCASSYSGGSPLHFGNGTRLTVTE
As to B3, in assay [2], the “percent cytotoxicity (calcein release), IM-9 target cells, T cell:target cell ratio 0.78, Mean” value was 8.3%; the “percent cytotoxicity (calcein release), IM-9 target cells, T cell:target cell ratio 1.56, Mean” value is 16.2%; the “percent cytotoxicity (calcein release), IM-9 target cells, T cell:target cell ratio 3.125, Mean” value was 28.9%; the “percent cytotoxicity (calcein release), IM-9 target cells, T cell:target cell ratio 6.25, Mean” value was 44.4%. Moreover, in assay [2], the “percent cytotoxicity (calcein release), IM-9 target cells, T cell:target cell ratio 12.5, Mean” value is 55.6%; the “percent cytotoxicity (calcein release), IM-9 target cells, T cell:target cell ratio 25, Mean” value was 65.4%; the “percent cytotoxicity (calcein release), IM-9 target cells, T cell:target cell ratio 50, Mean” value is 72.6%. Moreover, in assay [3], the “percent cytotoxicity (calcein release), IM-9++ target cells, T cell:target cell ratio 0.78, Mean” value is 13.3%; the “percent cytotoxicity (calcein release), IM-9++ target cells, T cell:target cell ratio 1.56, Mean” value is 25.6%; the “percent cytotoxicity (calcein release), IM-9++ target cells, T cell:target cell ratio 3.125, Mean” value was 43.6%; the “percent cytotoxicity (calcein release), IM-9++ target cells, T cell:target cell ratio 6.25, Mean” value is 57.3%. For the same molecule, in assay [3], the “percent cytotoxicity (calcein release), IM-9++ target cells, T cell:target cell ratio 12.5, Mean” value is 65.9%; the “percent cytotoxicity (calcein release), IM-9++ target cells, T cell:target cell ratio 25, Mean” value is 68.7%; the “percent cytotoxicity (calcein release), IM-9++ target cells, T cell:target cell ratio 50, Mean” value was 70%.

B4: TCR001 (TCR, V domains shown)
V domain 1: B3 V domain 1
V domain 2: NAGVTQTPKFRILKIGQSMTLQCAQDMNHNYMYWYRQDPGMGLKLIYYSVGAGITDKGEVPNGYNVSRSTTEYFPLRLELAAPSQTSVYFCASSYSGGSPLHFGNGTRLTVT
As for B4, the “Signal to Noise (S/N) ratio (RLU to peptide pulsed APCs divided by RLU to non-pulsed APCs), AP-1 luciferase reporter T cells” value in assay [1] is 25.4 ratio.

B5: TCR050 (TCR, V domains shown)
V domain 1: DAKTTQPNSMESNEEEPVHLPCNHSTISGTDYIHWYRQLPSQGPEYVIHGLTSNVNNRMASLAIAEDRKSSTLILHRATLRDAAVYYCILREGNNDMRFGAGTRLTVKP
V domain 2: B4 V domain 2 with Y95W, S96T, G97D, G98N, S99Q, L101Q, N105D, T110S, V111I, T112L
Regarding B5, the “Signal to Noise (S/N) ratio (RLU to peptide pulsed APCs divided by RLU to non-pulsed APCs), AP-1 luciferase reporter T cells” value in assay [1] was found to be 15.5 ratio.
